A word on the Tm: it is the temperature at which the thermal transition is half complete.

The results in this text go back to FireProtDB (doi:10.1016/s0022-2836(02)00915-4).

The chains are these.
B1: Protein GrpE, P09372 (parent)
chain: MSSKEQKTPEGQAPEEIIMDQHEEIEAVEPEASAEQVDPRDEKVANLEAQLAEAQTRERDGILRVKAEMENLRRRTELDIEKAHKFALEKFINELLPVIDSLDRALEVADKANPDMSAMVEGIELTLKSMLDVVRKFGVEVIAETNVPLDPNVHQAIAMVESDDVAPGNVLGIMQKGYTLNGRTIRAAMVTVAKAKA

Values joined by “and” are separate entries in the source; they are usually repeats but may differ in a detail not shown here. Equal entries are not always repeated.

The variants in the data set derive from B1. The following applies: Escherichia coli (strain K12); pH 6.8; Thermal; CD; potassium phosphate 10 mM; transition: 3; reversible: yes; structure 1DKG; whole UniProt chain shown.
Consider MSSKEQKTPEGQAPEEIIMDQHEEIEAVEPEASAEQVDPRDEKVANLEAQLAGAQTRERDGILRVKAEMENLRRRTELDIEKAHKFALEKFINELLPVIDSLDRALEVADKANPDMSAMVEGIELTLKSMLDVVRKFGVEVIAETNVPLDPNVHQAIAMVESDDVAPGNVLGIMQKGYTLNGRTIRAAMVTVAKAKA [E53G], for which the Tm was found to be 81 °C and the “change of melting temperature, mutant - wild type (higher = more stable)” value was -2 °C.
In the case of MSSKEQKTPEGQAPEEIIMDQHEEIEAVEPEASAEQVDPRDEKVANLEAQLAEAQTRERDGILRVKAEMENLRRRTELDIEKAHKFALEKFINELLPVIDSLDRALEVADKANPDMSAMVEDIELTLKSMLDVVRKFGVEVIAETNVPLDPNVHQAIAMVESDDVAPGNVLGIMQKGYTLNGRTIRAAMVTVAKAKA [G122D], the “change of melting temperature, mutant - wild type (higher = more stable)” value is -3 °C and 0 °C and -2 °C.
